To fix the notation:
B1: TNXB (parent)
chain: FSEIRETSAKVNWMPPPSRADSFK
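Note: lentivirally expressed fusions sorted by FACS into six bins by GFP to DsRed ratio, PSI derived from sequencing read proportions per bin multiplied by bin number.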

In this data set the parent is B1. In words: protein stability index of a GFP-peptide fusion (GPS, HEK-293T) (PSI 1-6); higher = more stable. The following applies: c terminus: a fixed tail appended.
For FSEIRETSAKFNWMPPPSRADSFK [V11F], the protein stability index was 2.97.
The value for FSEIRETSAKPNWMPPPSRADSFK [V11P] was 4.03.
Under FSEIRETSAKTNWMPPPSRADSFK [V11T] stands 3.72; under FSEIRETSAKANWMPPPSRADSFK [V11A], 3.77; under FSEIRETSAKLNWMPPPSRADSFK [V11L], 3.29.
The value for FSEIRETSAKWNWMPPPSRADSFK [V11W] was 2.73; that for FSEIRETSAKSNWMPPPSRADSFK [V11S] was 3.87.
For the variant FSEIRETSAKINWMPPPSRADSFK [V11I], the protein stability index stood at 3.77.
The value for FSEIRETSAKRNWMPPPSRADSFK [V11R] was 3.02; that for FSEIRETSAKQNWMPPPSRADSFK [V11Q] was 3.65.
The value for FSEIRETSAKMNWMPPPSRADSFK [V11M] was 3.17.
The value for FSEIRETSAKNNWMPPPSRADSFK [V11N] was 3.45; that for FSEIRETSAKDNWMPPPSRADSFK [V11D] was 4.12.
Regarding FSEIRETSAKGNWMPPPSRADSFK [V11G], the protein stability index was 3.38.
The value for FSEIRETSAKKNWMPPPSRADSFK [V11K] was 4.2.
The value for FSEIRETSAKYNWMPPPSRADSFK [V11Y] was 2.7; that for FSEIRETSAKENWMPPPSRADSFK [V11E] was 4.
On to FSEIRETSAKHNWMPPPSRADSFK [V11H], for which the protein stability index came to 3.5.
The value for FSEIRETSAKCNWMPPPSRADSFK [V11C] was 3.15; that for FSEIRETSKKVNWMPPPSRADSFK [A9K] was 3.
For FSEIRETSYKVNWMPPPSRADSFK [A9Y], the protein stability index came out at 2.82.
Under FSEIRETSIKVNWMPPPSRADSFK [A9I] stands 2.83; under FSEIRETSGKVNWMPPPSRADSFK [A9G], 3.04; under FSEIRETSFKVNWMPPPSRADSFK [A9F], 2.2.
Take FSEIRETSCKVNWMPPPSRADSFK [A9C]: the protein stability index was determined as 2.38.
Under FSEIRETSLKVNWMPPPSRADSFK [A9L] stands 3.41; under FSEIRETSPKVNWMPPPSRADSFK [A9P], 3.33.
Under FSEIRETSTKVNWMPPPSRADSFK [A9T] stands 3.46; under FSEIRETSQKVNWMPPPSRADSFK [A9Q], 3.72.
Regarding FSEIRETSWKVNWMPPPSRADSFK [A9W], the protein stability index worked out at 2.46.
The value for FSEIRETSMKVNWMPPPSRADSFK [A9M] was 3.32; that for FSEIRETSRKVNWMPPPSRADSFK [A9R] was 3.29; that for FSEIRETSVKVNWMPPPSRADSFK [A9V] was 2.35.
The value for FSEIRETSHKVNWMPPPSRADSFK [A9H] was 3.36; that for FSEIRETSDKVNWMPPPSRADSFK [A9D] was 3.58; that for FSEIRETSNKVNWMPPPSRADSFK [A9N] was 2.95.
Consider FSEIRETSSKVNWMPPPSRADSFK [A9S], for which the protein stability index was found to be 3.75.
The value for FSEIRETSEKVNWMPPPSRADSFK [A9E] was 4.04.
Consider FSEIREYSAKVNWMPPPSRADSFK [T7Y], for which the protein stability index was found to be 2.25.
Under FSEIREVSAKVNWMPPPSRADSFK [T7V] stands 2.97; under FSEIRETSAEVNWMPPPSRADSFK [K10E], 3.76; under FSEIRETSAQVNWMPPPSRADSFK [K10Q], 4.12.
The value for FSEIRETSAAVNWMPPPSRADSFK [K10A] was 3.92; that for FSEIRETSAIVNWMPPPSRADSFK [K10I] was 3.06; that for FSEIRETSAGVNWMPPPSRADSFK [K10G] was 3.28.
Under FSEIRETSACVNWMPPPSRADSFK [K10C] stands 3; under FSEIRETSAMVNWMPPPSRADSFK [K10M], 3.72.
On to FSEIRETSAHVNWMPPPSRADSFK [K10H], for which the protein stability index was determined as 3.32.
Under FSEIRETSASVNWMPPPSRADSFK [K10S] stands 3.76.
Under FSEIRETSAPVNWMPPPSRADSFK [K10P] stands 3.52; under FSEIRETSADVNWMPPPSRADSFK [K10D], 4.01.
Under FSEIRETSANVNWMPPPSRADSFK [K10N] stands 2.94.
FSEIRETSALVNWMPPPSRADSFK [K10L]: the protein stability index was determined as 3.29.
Under FSEIRETSATVNWMPPPSRADSFK [K10T] stands 3.96; under FSEIRETSAWVNWMPPPSRADSFK [K10W], 1.66.
Under FSEIRETSAYVNWMPPPSRADSFK [K10Y] stands 2.72; under FSEIRETSAFVNWMPPPSRADSFK [K10F], 2.09; under FSEIRETSARVNWMPPPSRADSFK [K10R], 3.67.
Consider FSEIRETLAKVNWMPPPSRADSFK [S8L], for which the protein stability index came to 2.79.
Under FSEIRETCAKVNWMPPPSRADSFK [S8C] stands 3.95; under FSEIRETTAKVNWMPPPSRADSFK [S8T], 3.63.
Consider FSEIRETGAKVNWMPPPSRADSFK [S8G], for which the protein stability index stood at 3.15.
The value for FSEIRETWAKVNWMPPPSRADSFK [S8W] was 2.1; that for FSEIRETDAKVNWMPPPSRADSFK [S8D] was 4.48.
For the variant FSEIRETIAKVNWMPPPSRADSFK [S8I], the protein stability index turned out to be 2.73.
The value for FSEIRETYAKVNWMPPPSRADSFK [S8Y] was 2.95.
Under FSEIRETMAKVNWMPPPSRADSFK [S8M] stands 3.15; under FSEIRETVAKVNWMPPPSRADSFK [S8V], 3.1.
The value for FSEIRETAAKVNWMPPPSRADSFK [S8A] was 3.5; that for FSEIRETEAKVNWMPPPSRADSFK [S8E] was 3.5; that for FSEIRETRAKVNWMPPPSRADSFK [S8R] was 2.74.
As for FSEIRETNAKVNWMPPPSRADSFK [S8N], the protein stability index came out at 3.73.
FSEIRETHAKVNWMPPPSRADSFK [S8H]: the protein stability index turned out to be 3.4.
In the case of FSEIRETQAKVNWMPPPSRADSFK [S8Q], the protein stability index came to 3.76.
With FSEIRETFAKVNWMPPPSRADSFK [S8F], the protein stability index came out at 2.51.
For the variant FSEIRETKAKVNWMPPPSRADSFK [S8K], the protein stability index worked out at 2.95.
Under FSEIRETPAKVNWMPPPSRADSFK [S8P] stands 3.3; under FSEIRETSAKVTWMPPPSRADSFK [N12T], 2.9.
The value for FSEIRETSAKVQWMPPPSRADSFK [N12Q] was 3.04.
Under FSEIRETSAKVVWMPPPSRADSFK [N12V] stands 1.95.
For FSEIRETSAKVFWMPPPSRADSFK [N12F], the protein stability index stood at 2.96.
The value for FSEIRETSAKVAWMPPPSRADSFK [N12A] was 2.14.
On to FSEIRETSAKVEWMPPPSRADSFK [N12E], for which the protein stability index is 3.46.
Under FSEIRETSAKVGWMPPPSRADSFK [N12G] stands 3.35.
The value for FSEIRETSAKVRWMPPPSRADSFK [N12R] was 2.62; that for FSEIRETSAKVDWMPPPSRADSFK [N12D] was 3.83; that for FSEIRETSAKVSWMPPPSRADSFK [N12S] was 3.38.
Under FSEIRETSAKVKWMPPPSRADSFK [N12K] stands 2.88.
Turning to FSEIRETSAKVMWMPPPSRADSFK [N12M], the protein stability index was 2.04.
Under FSEIRETSAKVPWMPPPSRADSFK [N12P] stands 3.17; under FSEIRETSAKVHWMPPPSRADSFK [N12H], 2.71; under FSEIRETSAKVWWMPPPSRADSFK [N12W], 2.2.
As for FSEIRETSAKVYWMPPPSRADSFK [N12Y], the protein stability index was 2.09.
Under FSEIRETSAKVIWMPPPSRADSFK [N12I] stands 3.24.
